Experiments:
His-PB2 = biological target: T1, His-PB2 (influenza A/Puerto Rico/8/1934 (PR8, …, UniProt P03428 1-759)); assay: pull-down; details: both partners purified
T1 construct: source: E. coli BL21, purified

His-PB1 = biological target: T2, His-PB1 (influenza A/Puerto Rico/8/1934 (PR8, …, UniProt P03431 1-757)); assay: pull-down; details: both partners purified
T2 construct: source: E. coli BL21, purified

B1: GST-DCAF7 (natural protein, human, UniProt P61962 1-342, looked up)
chain: MSLHGKRKEIYKYEAPWTVYAMNWSVRPDKRFRLALGSFVEEYNNKVQLVGLDEESSEFICRNTFDHPYPTTKLMWIPDTKGVYPDLLATSGDYLRVWRVGETETRLECLLNNNKNSDFCAPLTSFDWNEVDPYLLGTSSIDTTCTIWGLETGQVLGRVNLVSGHVKTQLIAHDKEVYDIAFSRAGGGRDMFASVGADGSVRMFDLRHLEHSTIIYEDPQHHPLLRLCWNKQDPNYLATMAMDGMEVVILDVRVPCTPVARLNNHRACVNGIAWAPHSSCHICTAADDHQALIWDIQQMPRAIEDPILAYTAEGEINNVQWASTQPDWIAICYNNCLEILRV
notes: source: E. coli BL21, purified
His-PB2
  binding result: binds
His-PB1
  binding result: binds
